Experiment [1] concerns the target T1, huFLT3-T227 stably expressed on Ramos cells (human, UniProt P36888 27-993).
T1 construct: whole, on cells; also called FLT3 WT
As to the kind of experiment: FACS on cells.
Protocol: (§1) For FLT3, Ramos cells were engineered to stably express either the huFLT3-T227 or huFLT3-M227 variant at >200,000 receptors per cell. Parental, huFLT3-T227, and huFLT3-M227 Ramos cell lines were stained with differing levels of CellTrace Violet Cell Proliferation Kit (ThermoFisher, cat. #C34557) to barcode each cell line. Barcoded Ramos cell lines were fixed with paraformaldehyde and incubated with myc-labeled scFv periplasmic extracts and a secondary anti-myc PE-conjugated monoclonal antibody. Appropriate positive and negative controls were used. Stained cells were analyzed by flow cytometry (CytoFLEX, Beckman Coulter, Inc.) and binding was assessed by change in PE mean fluorescence intensity (MFI) of the barcoded cell populations.

Experiment [2] concerns the target T2, huFLT3-M227 stably expressed on Ramos cells (human, UniProt P36888 27-993).
T2 construct: whole, on cells; also called FLT3 Mutant
Kind of experiment: FACS on cells.
Protocol: as §1

Some results are limits rather than exact numbers.

B1: Polypeptide No. 213 (scFv, V domains shown)
VH: QVQLVQSGAEVKKPGASVKVSCKASGYTFSRYYMSWVRQAPGQGLEWMGWMNPNSGNTGYAQKFQGRVTMTRDTSTSTVYMELSSLRSEDTAVYYCARTRFAAQPHNWHFDLWGRGTLVTVSS
VL: DIQMTQSPSSLSASVGDRVTITCRASQSISSYLNWYQQKPGKAPKLLIYDASNLKTGVPSRFSGSGSGTDFTLTISSLQPEDFATYYCQQSYSTPLTFGPGTKVDIKR
notes: scFv
Regarding B1, the “FACS geometric mean fold change over Jurkat parental” value (shortened to “FACS geometric mean fold change”) in experiment [1] and in experiment [2] was 10 to 30 fold throughout.

B2: Polypeptide No. 223 (scFv, V domains shown)
VH: QVQLVQSGAEVKKPGASVKVSCKASGYTFTNSFIHWVRQAPGQGLEWMGIINPSGGSTSYAQKFQGRVTMTRDTSTSTVYMELSSLRSEDTAVYYCAKALERRYYYGMDVWGQGTTVTVSS
VL: DIQMTQSPSSLSASVGDRVTITCRASQGISNYLAWYQQKPGKAPKLLIYDGSNLETGVPSRFSGSGSGTDFTLTISSLQPEDFATYYCQQSYSTPLTFGQGTKVEIKR
notes: scFv
B2: the “FACS geometric mean fold change” value in experiment [1] and in experiment [2] was over 30 fold each time.

B3: Polypeptide No. 215 (scFv, V domains shown)
VH: QVQLVQSGAEVKKPGASVKVSCKASGYTFTGYRMHWVRQAPGQGLEWMGWINPNSGGTNYAQKFQGRVTMTRDTSTSTVYMELSSLRSEDTAVYYCAKGGLDWRNWYFDLWGRGTLVTVSS
VL: DIQMTQSPSSLSASVGDRVTITCRASQGISSYLAWYQQKPGKAPKLLIYAASTLQSGVPSRFSGSGSGTDFTLTISSLQPEDFATYYCQQSYSTPLTFGGGTKVEIKR
notes: scFv
Take B3: the “FACS geometric mean fold change” value in experiment [1] and in experiment [2] was 10 to 30 fold throughout.

B4: Polypeptide No. 228 (scFv, V domains shown)
VH: QVQLVQSGAEVKKPGASVKVSCKASGGTFSSHAISWVRQAPGQGLEWMGWINPGSGGTNYAQKFQGRVTMTRDTSTSTVYMELSSLRSEDTAVYYCAKDSYDFWSGYYIDYWGQGTLVTVSS
VL: DIQMTQSPSSLSASVGDRVTITCRASQSIYTHLNWYQQKPGKAPKLLIYAASRLQTGVPSRFSGSGSGTDFTLTISSLQPEDFATYYCQQSYSFPFTFGPGTKVDIKR
notes: scFv
On to B4, for which the “FACS geometric mean fold change” value in experiment [1] and in experiment [2] was over 30 fold throughout.

B5: Polypeptide No. 231 (scFv, V domains shown)
VH: QVQLVQSGAEVKKPGASVKVSCKASGYTFTSYYIHWVRQAPGQGLEWMGLINPSGGSTTYAQSFQGRVTMTRDTSTSTVYMELSSLRSEDTAVYYCARGLGWGVVVPAAELDYWGQGTLVTVSS
VL: DIQMTQSPSSLSASVGDRVTITCRASQSISTYLNWYQQKPGKAPKLLIYAASNLQSGVPSRFSGSGSGTDFTLTISSLQPEDFATYYCQQSYSSPLTFGPGTKVDIKR
notes: scFv
As for B5, the “FACS geometric mean fold change” value in experiment [1] and in experiment [2] was over 30 fold throughout.

B6: Polypeptide No. 208 (scFv, V domains shown)
VH: QVQLVQSGAEVKKPGASVKVSCKASGGTFSSRSISWVRQAPGQGLEWMGIINPSGGGTLYAQKFQGRVTMTRDTSTSTVYMELSSLRSEDTAVYYCAKDMDGWSDAFDIWGQGTTVTVSS
VL: EIVMTQSPATLSVSPGERATLSCRASQSLSNIYLAWYQQKPGQAPRLLIYDVSSRAAGIPARFSGSGSGTEFTLTISSLQSEDFAVYYCQQYATSPLTFGGGTKVEIKR
notes: scFv
Regarding B6, the “FACS geometric mean fold change” value in experiment [1] and in experiment [2] was 10 to 30 fold throughout.

B7: Polypeptide No. 219 (scFv, V domains shown)
VH: QVQLVQSGAEVKKPGASVKVSCKASGYTFTNYYMHWVRQAPGQGLEWMGIINPSSGSASYTQKLQGRVTMTRDTSTSTVYMELSSLRSEDTAVYYCARDRSTLVPLDYWGQGTLVTVSS
VL: DIQMTQSPSSLSASVGDRVTITCRASQGIRSELSWYQQKPGKAPKLLIYKASSLESGVPSRFSGSGSGTDFTLTISSLQPEDFATYYCLQHNSYPLTFGGGTKVEIKR
notes: scFv
For B7, the “FACS geometric mean fold change” value in experiment [1] and in experiment [2] was 10 to 30 fold each time.

B8: Polypeptide No. 235 (scFv, V domains shown)
VH: QVQLVQSGAEVKKPGASVKVSCKASGYTFTGYYMHWVRQAPGQGLEWMGIINPSGGSTSYAQKFQGRVTMTRDTSTSTVYMELSSLRSEDTAVYYCARDPGRLGELDYWGQGTLVTVSS
VL: EIVMTQSPATLSVSPGERATLSCRASQSVSSNLAWYQQKPGQAPRLLIYGASTRATGIPARFSGSGSGTEFTLTISSLQSEDFAVYYCQQYGSSPLTFGGGTKVEIKR
notes: scFv
Take B8: the “FACS geometric mean fold change” value in experiment [1] and in experiment [2] was over 30 fold each time.

B9: Polypeptide No. 218 (scFv, V domains shown)
VH: QVQLVQSGAEVKKPGASVKVSCKASGYSFTTHYMHWVRQAPGQGLEWMGIINPSGGSTRYAQKFQGRVTMTRDTSTSTVYMELSSLRSEDTAVYYCARGSSYYYYGVDVWGKGTTVTVSS
VL: DIQMTQSPSSLSASVGDRVTITCRASQSISTWLAWYQQKPGKAPKLLIYAASSLQSGVPSRFSGSGSGTDFTLTISSLQPEDFATYYCQQAISFPLTFGGGTKVEIKR
notes: scFv
In the case of B9, the “FACS geometric mean fold change” value in experiment [1] and in experiment [2] was 10 to 30 fold throughout.

B10: Polypeptide No. 229 (scFv, V domains shown)
VH: QVQLVQSGAEVKKPGASVKVSCKASGYTFTNYYMHWVRQAPGQGLEWMGIINPSGGSTSYAQKFQGRVTMTRDTSTSTVYMELSSLRSEDTAVYYCARGVGYSGYGADLWGRGTLVTVSS
VL: DIQMTQSPSSLSASVGDRVTITCRASQGISNSLAWYQQKPGKAPKLLIYAASSLQSGVPSRFSGSGSGTDFTLTISSLQPEDFATYYCQQSHSPPYTFGQGTKLEIKR
notes: scFv
For B10, the “FACS geometric mean fold change” value in experiment [1] and in experiment [2] was over 30 fold each time.

B11: Polypeptide No. 222 (scFv, V domains shown)
VH: QVQLVQSGAEVKKPGASVKVSCKASGYSFTAYYMHWVRQAPGQGLEWMGIINPSGGSTSYAQKFQGRVTMTRDTSTSTVYMELSSLRSEDTAVYYCARVAGINGEMAYWGQGTLVTVSS
VL: DIQMTQSPSSLSASVGDRVTITCRASQDISNYLAWYQQKPGKAPKLLIYAASTLQSGVPSRFSGSGSGTDFTLTISSLQPEDFATYYCQQSYRTPYTFGQGTKVEIKR
notes: scFv
For B11, the “FACS geometric mean fold change” value in experiment [1] and in experiment [2] was over 30 fold throughout.

B12: Polypeptide No. 233 (scFv, V domains shown)
VH: QVQLVQSGAEVKKPGASVKVSCKASGYTFTSYYLHWVRQAPGQGLEWIGVINPSGGSTTYAQRFQGRVTMTRDTSTSTVYMELSSLRSEDTAVYYCARGIGYGGYFDYWGQGTLVTVSS
VL: DIVMTQSPLSLPVTPGEPASISCRSSQSLLHSNGYNYLDWYLQKPGQSPQLLIYAASSLQSGVPDRFSGSGSGTDFTLKISRVEAEDVGVYYCMQGLRTPHTFGGGTKVEIKR
notes: scFv
For B12, the “FACS geometric mean fold change” value in experiment [1] and in experiment [2] was over 30 fold in each case.

B13: Polypeptide No. 212 (scFv, V domains shown)
VH: QVQLVQSGAEVKKPGSSVKVSCKASGYTFTGYYMHWVRQAPGQGLEWMGGIIPILGTANNAQKFQGRVTITADESTSTAYMELSSLRSEDTAVYYCARAPWGTFDYWGQGTLVTVSS
VL: EIVMTQSPATLSVSPGERATLSCRASQSVSSSQLAWYQQKPGQAPRLLIYDTSTRATGIPARFSGSGSGTEFTLTISSLQSEDFAVYYCQQYDNSLWTFGQGTRLEIKR
notes: scFv
For B13, the “FACS geometric mean fold change” value in experiment [1] and in experiment [2] was 10 to 30 fold each time.

These data come from patent US20240101668A1 (WUGEN, published 2024).
